Reference: patent US9506077B2, “Synthetic chloroplast transit peptides” (DOW AGROSCIENCES LLC, priority 2012, dated 2016)

B1: TraP4: chloroplast transit peptide, encoding sequence SEQ ID NO:24, fused to dgt-28 (protein)
chain: MLARQGGSLRASQCNAGLARRVEVGALVVPRPISVNDVVPHVYSAPLSVARRSCSKSSIRSTRRLQTTVCS
modifications: Chloroplast Transit Peptide
B2: TraP8: chloroplast transit peptide, encoding sequence SEQ ID NO:26, fused to dgt-28 (protein)
chain: MAQSSRICHGVQNPCVIISNLSKSNQNKSPFSVSLKTHQQQRRAYQISSWGLKKSNNGSVIRPVKA
modifications: Chloroplast Transit Peptide
B3: TraP23: synthetic chloroplast transit peptide, SEQ ID NO:11; encoded by SEQ ID NO:12; tested fused to GFP, dgt-28, dgt-31, cry2Aa (protein)
chain: MAQINKSANGVRNASLISNFSNTRQAKSPFSLSCGTRLKNSSRGLKKVAVRLIGSRVKVSAS
modifications: TraP23 synthetic chloroplast transit peptide
notes: tested fused to GFP, dgt-28, dgt-31, cry2Aa

What was measured:
T1 Arabidopsis = T1 Arabidopsis response to glyphosate applied postemergence (Tables 5-7); assay type: in vivo, Arabidopsis thaliana
Description: Transgenic T1 Arabidopsis plants containing the dgt-28 transgene were sprayed with differing rates of glyphosate. Elevated rates were applied in this study to determine the relative levels of resistance (105, 420, 1,680 or 3,360 g ae/ha). A typical 1× usage rate of glyphosate that will control non-transformed Arabidopsis is 420 g ae/ha. […] The T1 Arabidopsis plants that were used in this study were variable copy number for the dgt-28 transgene. The low copy dgt-28 T1 Arabidopsis plants were self-pollinated and used to produce T2 plants.
The Arabidopsis T1 transformants were first selected from the background of untransformed seed using a glufosinate selection scheme. Three flats or 30,000 seed were analyzed for each T1 construct. The T1 plants selected above were molecularly characterized and representative plants with variable copy number were subsequently transplanted to individual pots and sprayed with various rates of commercial glyphosate as previously described. The response of these plants is presented in terms of % visual injury 2 weeks after treatment (WAT). […] An arithmetic mean and standard deviation is presented for each construct used for Arabidopsis transformation. The range in individual response is also indicated in the last column for each rate and transformation. Wild-type, non-transformed Arabidopsis (c.v. Columbia) served as a glyphosate sensitive control.

T1 tobacco = test: Postemergence glyphosate tolerance of dgt-28 T1 tobacco (Table 25); assay type: in vivo, Tobacco (cv. Petit Havana); conditions: 2240 g ae/ha glyphosate, 14 DAT
Description: T1 resistant plants from each event used in the progeny testing were given unique identifiers and sampled for zygosity analyses of the dgt-28 gene. Zygosity data were used to assign 2 hemizygous and 2 homozygous replicates to each rate of glyphosate applied allowing for a total of 4 replicates per treatment. These plants were compared against wildtype Petite havana tobacco. All plants were sprayed with a track sprayer set at 187 L/ha. The plants were sprayed from a range of 560-4480 g ae/ha DURANGO DMA™. All applications were formulated in water with the addition of 2% w/v ammonium sulfate (AMS). Plants were evaluated at 7 and 14 days after treatment. Plants were assigned an injury rating with respect to overall visual stunting, chlorosis, and necrosis. The T1 generation is segregating, so some variable response is expected due to difference in zygosity.

[1] = system: chloroplasts of the maize protoplast; test: Maize protoplast transient assay, GFP microscopy; assay type: cell-based, Zea mays var. B104; conditions: TraP23-GFP, maize protoplasts, 12 hours incubation
Description: The Trap23 v2 synthetic chloroplast transit peptide-encoding polynucleotide sequence (SEQ ID NO:12) was cloned upstream of the green fluorescent protein gene and incorporated into the pDAB106598 construct (FIG. 5) for testing via the maize protoplast transient in planta assay. The resulting construct contained the following plant transcription unit (PTU). The first PTU was comprised of the Zea mays Ubiquitin 1 promoter (ZmUbi1 promoter; Christensen, A., Sharrock R., and Quail P., (1992) Maize polyubiquitin genes: structure, thermal perturbation of expression and transcript splicing, and promoter activity following transfer to protoplasts by electroporation, Plant Molecular Biology, 18:675-689), TraP-green fluorescent protein fusion gene (TraP23-GFP; U.S. Pat. No. 7,678,893), and Zea mays Peroxidase 5 3′ untranslated region (ZmPer5 3′UTR; U.S. Pat. No. 6,384,207). The construct was confirmed via restriction enzyme digestion and sequencing.
Seed of Zea mays var. B104 were surface sterilized by shaking vigorously in 50% Clorox (3% sodium hypochlorite), containing 2-3 drops of Tween 20, for about 20 minutes. […]
Transfection of 100 to 500 μl of protoplasts (1-5×10^5) was completed by adding the protoplasts to a 2 ml microfuge tube containing about 40 μg of plasmid DNA (pDAB106598), at room temperature. […] Fluorescence of GFP was viewed by microscopy after 12 hours of incubation. […]

[2] = system: infiltrated tobacco cells; test: Tobacco transient assay, anti-GFP Western blot; assay type: cell-based, Nicotiana benthamiana; conditions: infiltrated tobacco leaf; band size vs GFP control
Description: Samples of the infiltrated tobacco plants were assayed via Western blotting. Leaf punches were collected and subjected to bead-milling. About 100-200 mg of leaf material was mixed with 2 BBs (steel balls; Daisy; Rogers, Ark.) and […] of PBST for 3 minutes in a Kleco™ bead mill. The samples were then spun down in a centrifuge at 14,000×g at 4° C. The supernatant was removed and either analyzed directly via Western blot or immunoprecipitated. The immunoprecipitations were performed using the Pierce Direct IP Kit™ (Thermo Scientific; Rockford, Ill.) following the manufacturer's protocol. Approximately, 50 μg of anti-GFP was bound to the resin. The samples were incubated with the resin overnight at 4° C. Next, the samples were washed and eluted the following morning and prepped for analysis by combining equal volumes of 2×8M Urea sample buffer and then boiling the samples for 5 minutes. The boiled samples were run on a 4-12% SDS-Bis Tris gel in MOPS buffer for 40 minutes. The gel was then blotted using the Invitrogen iBlot™ (Life Technologies; Carlsbad, Calif.) following the manufacturer's protocol. The blotted membrane was blocked for 10 minutes using 5% non-fat dry milk in PBS-Tween solution. The membrane was probed with the primary antibody (monoclonal anti-GFP in rabbit) used at a 1:1000 dilution in the 5% non-fat dry milk in PBS-Tween solution for 1 hour. […]

[3] = system: chloroplasts of the tobacco cells; test: Tobacco transient assay, confocal microscopy of TraP-GFP; assay type: cell-based, Nicotiana benthamiana; conditions: TraP23-GFP, infiltrated tobacco leaf
Description: The Trap23 synthetic chloroplast transit peptide sequence were initially tested via a transient in planta assay. A polynucleotide sequence which encodes the Trap23v2 (SEQ ID NO:12) synthetic chloroplast transit peptide sequences was synthesized. The resulting construct contained two plant transcription units (PTU). The first PTU was comprised of the Arabidopsis thaliana Ubiquitin 10 promoter (AtUbi10 promoter; Callis, et al., (1990) J. Biol. Chem., 265: 12486-12493), TraP-green fluorescent protein fusion gene (TraP-GFP; U.S. Pat. No. 7,678,893), and Agrobacterium tumefaciens ORF 23 3′ untranslated region (AtuORF23 3′UTR; U.S. Pat. No. 5,428,147). […]
Agrobacterium-infiltrated tobacco leaves were severed from the plant, and placed into a petri-dish with water to prevent dehydration. The infiltrated tobacco leaves were observed under blue light excitation with long-pass filter glasses held in place using a Dark Reader Hand Lamp™ (Clare Chemical Research Co.; Dolores, Colo.) to identify undamaged areas of the leaf that were successfully expressing the GFP reporter proteins. […]

| Molecule | typical 1x usage rate of glyphosate that will control non-transformed Arabidopsis (T1 Arabidopsis) [g ae/ha] | % Injury Ave (T1 tobacco) | accumulation of GFP within the chloroplasts (microscopy imaging) [1] | processing and cleavage of transit peptide from GFP (Western blot) [2] | accumulation of GFP protein within the chloroplasts (microscopy imaging) [3] |
| --- | --- | --- | --- | --- | --- |
| O=C(O)CNCP(=O)(O)O [glyphosate] | 420 | – | – | – | – |
| B1 | – | of 37.5% was demonstrated with the event containing TraP4, | – | – | – |
| B2 | – | 9.3% | – | – | – |
| B3 | – | 9.5% | accumulated within the chloroplasts | processed | did not accumulate detectable amounts of GFP protein within the chloroplasts |
